In paper PMC8508679:

Target: Trop2 ectodomain (N120Q, N208Q) (human) (UniProt P09758)
Test: crystal structure; X-ray, 2.81 Å; sitting drop vapor diffusion, 1.6 M ammonium sulfate, 0.5 M NaCl, 13.3 mM EDTA, 0.1 M MES pH 5.8, protein at 10 mg/mL; crystal contacts analysed with PISA

stoichiometry N: 2
Substance: Trop2 ectodomain (N120Q, N208Q) (from UniProt P09758 27-274) (domain or fragment)
